Laboratory results published in the supplement of paper PMC7877785.
± gives the uncertainty stated by the source.

Experiment: self-splicing fitness, log relative to wild type (ln ratio); higher = more splicing; Tetrahymena group I intron in knt gene, E. coli kanamycin selection, DiMSum; sequences stand for … in CUCUCU…GGAGGGAAAAGUUAUCAGGCAUGCACCUGGUAGCUAGUCUUUAAACCAAUAGAUUGCAUCGGUUUAAAAGGCAAGACCGUCAAAUUGCGGGAAAGGGGUCAACAGCCGUUCAGUACCAAGUCUCAGGGGAAACUUUGAGAUGGCCUUGCAAAGGGUAUGGUAAUAAGCUGACGGACAUGGUCCUAACCACGCAGCCAAGUCCUAAGUCAACAGAUCUUCUGUUGAUAUGGAUGCAGUUCACAGACUAAAUGUCGGUCGGGGAAGAUGUAUUCUUCUCAUAAGAUAUAGUCGGACCUCUCCUUAAUGGGAGCUAGCGGAUGAAGUGAUGCAACACUGGAGCCGCUGGGAACUAAUUUGUAUGCGAAAGUAUAUUGAUUAGUUUUGGAGUACUCGUGGUCG
Outline: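 Fitness was computed with DiMSum as the error-weighted combination of replicate fold changes, kanamycin versus none, each normalised to wild type. The library randomised all eight intron nucleotides of the P1ex region, with the intron placed in the knt kanamycin-resistance gene on pET-22b(+) in E. coli BL21(DE3). Six replicate transformations were grown overnight at 37°C or 30°C on LB agar with or without 25 μg/mL kanamycin, plus 100 μg/mL carbenicillin, 50 μM IPTG and 0.2% rhamnose. Pooled colonies were amplicon-sequenced on an Illumina HiSeq 2500.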

Row | Sequence | self-splicing fitness (ln) (30 °C) | self-splicing fitness (ln) (37 °C)
1 | CGUGAGCAAUAUUACGUCCA | -2.37 ± 0.26 | -2.38 ± 0.34
2 | CGUGAGCAAUAUUACGUCUU | -2.26 ± 0.27 | 
3 | CGUGAGCAAUAUUACGUGUA | -3.18 ± 0.22 | -3.91 ± 0.31
4 | CGUGAGCAAUAUUACGUUCU | -2.74 ± 0.28 | -2.2 ± 0.27
5 | CGUGAGCAAUAUUACGUUUC | -3.19 ± 0.23 | -2.23 ± 0.19
6 | CGUUAGCAAUAUUACGAACG | -2.85 ± 0.3 | -2.62 ± 0.38
7 | CGUUAGCAAUAUUACGACAA | -1.99 ± 0.17 | -1.15 ± 0.17
8 | CGUUAGCAAUAUUACGAGGA | -2.48 ± 0.27 | -2.13 ± 0.27
9 | CGUUAGCAAUAUUACGAUAC |  | -2.64 ± 0.44
10 | CGUUAGCAAUAUUACGAUGC | -0.888 ± 0.21 | -1.63 ± 0.31
11 | CGUUAGCAAUAUUACGAUUA | -2.16 ± 0.26 | -1.14 ± 0.22
12 | CGUUAGCAAUAUUACGCCUU | -3.33 ± 0.43 | -2.18 ± 0.19
13 | CGUUAGCAAUAUUACGCUGG | -1.45 ± 0.28 | -1.83 ± 0.31
14 | CGUUAGCAAUAUUACGGCGA | -1.6 ± 0.11 | -1.61 ± 0.11
15 | CGUUAGCAAUAUUACGGGCC | -1.91 ± 0.18 | -1.75 ± 0.24
16 | CGUUAGCAAUAUUACGGUAG | -0.514 ± 0.097 | -0.104 ± 0.11
17 | CGUUAGCAAUAUUACGUAUU | -3.02 ± 0.18 | -2.64 ± 0.19
18 | CGUUAGCAAUAUUACGUGAU | -3.16 ± 0.24 | -2.45 ± 0.2
19 | CGUUAGCAAUAUUACGUGCG | -3.7 ± 0.14 | -2.71 ± 0.15
20 | CUAAAGCAAUAUUACGAGAA | -2.99 ± 0.19 | -3.25 ± 0.33
21 | CUAAAGCAAUAUUACGAUAG | 0.0858 ± 0.072 | 0.313 ± 0.085
22 | CUAAAGCAAUAUUACGCACU | -3.41 ± 0.2 | -2.34 ± 0.32
23 | CUAAAGCAAUAUUACGCAUU | -4.21 ± 0.21 | -1.51 ± 0.14
24 | CUAAAGCAAUAUUACGCUAU | -4.21 ± 0.31 | -2.75 ± 0.3

Row | Sequence | self-splicing fitness (ln) (30 °C) | self-splicing fitness (ln) (37 °C)
25 | CUAAAGCAAUAUUACGCUCG | -0.715 ± 0.12 | -0.626 ± 0.15
26 | CUAAAGCAAUAUUACGCUGG | -3.74 ± 0.22 | -2.11 ± 0.25
27 | CUAAAGCAAUAUUACGCUGU | -3.72 ± 0.29 | -2.39 ± 0.21
28 | CUAAAGCAAUAUUACGGGGC | -2.86 ± 0.36 | -2.78 ± 0.28
29 | CUAAAGCAAUAUUACGGUAC |  | -2.35 ± 0.25
30 | CUAAAGCAAUAUUACGUAAG | -0.149 ± 0.07 | -0.575 ± 0.085
31 | CUAAAGCAAUAUUACGUAAU | -4.33 ± 0.29 | -2.54 ± 0.23
32 | CUAAAGCAAUAUUACGUAGA | -3.64 ± 0.19 | -4.04 ± 0.46
33 | CUAAAGCAAUAUUACGUAGG | -1.15 ± 0.088 | -1.2 ± 0.11
34 | CUAAAGCAAUAUUACGUAUG | -0.125 ± 0.059 | 0.0627 ± 0.081
35 | CUAAAGCAAUAUUACGUUGA | -4.09 ± 0.23 | -2.6 ± 0.29
36 | CUACAGCAAUAUUACGAGCG | -0.282 ± 0.076 | -0.442 ± 0.1
37 | CUACAGCAAUAUUACGAGCU | -3.01 ± 0.21 | -2.19 ± 0.19
38 | CUACAGCAAUAUUACGCAAC | -3.66 ± 0.36 | -3.03 ± 0.29
39 | CUACAGCAAUAUUACGCAAG | -2.61 ± 0.15 | -1.45 ± 0.19
40 | CUACAGCAAUAUUACGCACU | -3.52 ± 0.21 | -3.03 ± 0.4
41 | CUACAGCAAUAUUACGCAGG | -2.62 ± 0.13 | -3.06 ± 0.24
42 | CUACAGCAAUAUUACGCCGA | -2.29 ± 0.18 | -3.15 ± 0.43
43 | CUACAGCAAUAUUACGCCGC | -3.76 ± 0.22 | -3.62 ± 0.39
44 | CUACAGCAAUAUUACGCGGG | -2.27 ± 0.094 | -2.56 ± 0.12
45 | CUACAGCAAUAUUACGGAUG | -0.683 ± 0.056 | -0.187 ± 0.076
46 | CUACAGCAAUAUUACGGCAC | -3.29 ± 0.23 | -2.45 ± 0.32
47 | CUACAGCAAUAUUACGGUAA | -0.706 ± 0.066 | -0.344 ± 0.076
48 | CUACAGCAAUAUUACGGUCU | -4.27 ± 0.19 | -2.13 ± 0.16
